# Results from IntAct's records for PubMed 9804817.
# B1: Tyrosine-protein phosphatase non-receptor type 18 (Mus musculus), Q61152 (parent)
# chain: MSRHTDLVRSFLEQLEARDYREGAILAREFSDIKARSVAWKSEGVCSTKAGSRLGNTNKNRYKDVVAYDETRVILSLLQEEGHGDYINANFIRGIDGSQAYIATQGPLPHTLLDFWRLVWEFGVKVILMACQETENGRRKCERYWAREQEPLKAGPFCITLTKETTLNADITLRTLQVTFQKEFRSVHQLQYMSWPDHGVPSSSDHILTMVEEARCLQGLGPGPLCVHCSAGCGRTGVLCAVDYVRQLLLTQTIPPNFSLFQVVLEMRKQRPAAVQTEEQYRFLYHTVAQLFSRTLQDTSPHYQNLKENCAPICKEAFSLRTSSALPATSRPPGGVLRSISVPAPPTLPMADTYAVVQKRGASAGTGPGPRAPTSTDTPIYSQVAPRAQRPVAHTEDAQGTTALRRVPADQNSSGPDAYEEVTDGAQTGGLGFNLRIGRPKGPRDPPAEWTRV
# B2: Proline-serine-threonine phosphatase-interacting protein 2 (Mus musculus), Q99M15 (parent)
# chain: MTGSLFKGNFWSTDILSTIGYDSIIQHLNNGRKNCKEFEDFLKERASIEEKYGKDLLNLSRKKPCGQSEINTLKRALEVFKQQVDNVAQCHIQLAQTLREEARKMEEFREKQKLQRKKTETIMDAAHKQRNAQFKKAMDAKKNYEQKCRDKDEAEQAVHRSANVANQRQQEKLFVKLATSKTAVEDSDKAYMLHINMLEKVREDWQSEHIKACEVFEAQECERINFFRNALWLHLNQLSQQCVANDEMYEQVRKSLETCSIEKDIQYFVNQRKTGQTPPAPIMYENFYSPQRNAAPPGKTTGPNPARRGPLPVPKRIPDDPDYSVVEDYSLLYQ
# partner: B1 chain
# B3: Tyrosine-protein phosphatase non-receptor type 18 (Mus musculus), Q61152 (parent)
# chain: B1 chain
# partner: B2 chain
# B4: Proline-serine-threonine phosphatase-interacting protein 1 (Mus musculus), P97814 (parent)
# chain: MMAQLQFRDAFWCRDFTAHTGYEVLLQRLLDGRKMCKDVEELLRQRAQAEERYGKELVQIARKAGGQTEMNSLRTSFDSLKQQTENVGSAHIQLALALREELRSLEEFRERQKEQRKKYEAIMDRVQKSKLSLYKKTMESKKAYDQKCRDADDAEQAFERVSANGHQKQVEKSQNKAKQCKESATEAERVYRQNIEQLERARTEWEQEHRTTCEAFQLQEFDRLTILRNALWVHCNQLSMQCVKDDELYEEVRLTLEGCDVEGDINGFIQSKSTGREPPAPVPYQNYYDREVTPLIGSPSIQPSCGVIKRFSGLLHGSPKTTPSAPAASTETLTPTPERNELVYASIEVQATQGNLNSSAQDYRALYDYTAQNSDELDISAGDILAVILEGEDGWWTVERNGQRGFVPGSYLEKL
# partner: B1 chain
# Variants of: B1
# Conditions: with ppip1_mouse Pstpip1, P97814
row,Variant,effect of a mutation on the interaction
1,R444A,decreasing interaction

# Variants of: B1
# Conditions: with ppip1_mouse Pstpip1, P97814
# Remark: another data set of the same source
row,Variant,effect of a mutation on the interaction
1,W450A,decreasing interaction

# Variants of: B2
# Conditions: with ptn18_mouse Ptpn18, Q61152
row,Variant,effect of a mutation on the interaction
1,W232A,disrupting interaction

# Variants of: B3
# Conditions: with ppip2_mouse Pstpip2, Q99M15
row,Variant,effect of a mutation on the interaction
1,W450A,decreasing interaction

# Variants of: B3
# Conditions: with ppip2_mouse Pstpip2, Q99M15
# Remark: another data set of the same source
row,Variant,effect of a mutation on the interaction
1,R444A,decreasing interaction

# Variants of: B4
# Conditions: with ptn18_mouse Ptpn18, Q61152
row,Variant,effect of a mutation on the interaction
1,W232A,disrupting interaction
